Measurements reported in PMC8065039 (Communications Biology, 2021).

Legend:
[1] = biological target: recombinant SARS-CoV-2 Spike S1 + S2 protein (40589-V08B1, Sino Biological) (SARS-CoV-2, Wuhan-1 (MN908947), UniProt P0DTC2); assay: ELISA; settings: both partners purified
[2] = biological target: recombinant SARS-CoV-2 Spike RBD (catalogue number not stated for this experiment) (SARS-CoV-2, UniProt P0DTC2); assay: ELISA; settings: both partners purified
[3] = biological target: SARS-CoV-2 Spike protein on transfected CHO-K1 cells (GenScript RD00819) (SARS-CoV-2, UniProt P0DTC2); assay: cell-based or functional assay
[4] = biological target: extracellular domain of SARS-CoV-2 S protein (S-ECD), 1-1208 aa, with two proline substitutions, GSAS … (SARS-CoV-2, Wuhan-Hu-1, UniProt P0DTC2, proline substitution at residue 986 | proline substitution at residue 987 | …); assay: cryo-EM structure; settings: both partners purified
[5] = biological target: SARS-CoV-2 Spike-Trimer protein (Shuimu BioSciences Ltd.) (SARS-CoV-2, Wuhan-Hu-1 assumed, UniProt P0DTC2); assay: BLI; settings: both partners purified

B1: CA521^FALA (human IgG4 monoclonal antibody with the F234A/L235A mutation) (antibody, V domains shown)
VH: EVQLQQWGAGLLKPSETLSLTCAVYGGSFSGYYWSWIRQPPGKGLEWIGEVNHSGSTNYNPSLKSRVTISVDTSKNQLSLKLNSVTAADTAVYYCARGNTMVRGVIIPFEYWDKGTLVTVSS
VL: EIVLTQSPATLSLSPGERATLSCRASQSVSSYLAWYQQKPGQAPRLLIYDASNRATGIPARFSGSGSGTDFTLTISSLEPEDFAVYYCQQRSNWPLTFGGGTKVEIK
notes: also called CA521^FALA IgG; full-length CA521^FALA IgG; source: Expi-CHO Expression system, purified (protein A, Q FF, Capto S ImpAct)
EC50 [1]: 0.014 nM
IC50 [2]: 0.343 nM
IC50 of inhibition of SARS-CoV-2 pseudovirus transduction into Huh-7 cells [3]: 0.121 nM
binding result [4]: binds
Kd [5]: < 0.001 nM
